One substance from publication PMC10365013 can be followed below.

In this assay the target is avi-tagged SHOC2 (human) (UniProt Q9UQ13). As to the kind of experiment: SPR.
Sequence of avi-tagged SHOC2 (human) (Q9UQ13 whole entry): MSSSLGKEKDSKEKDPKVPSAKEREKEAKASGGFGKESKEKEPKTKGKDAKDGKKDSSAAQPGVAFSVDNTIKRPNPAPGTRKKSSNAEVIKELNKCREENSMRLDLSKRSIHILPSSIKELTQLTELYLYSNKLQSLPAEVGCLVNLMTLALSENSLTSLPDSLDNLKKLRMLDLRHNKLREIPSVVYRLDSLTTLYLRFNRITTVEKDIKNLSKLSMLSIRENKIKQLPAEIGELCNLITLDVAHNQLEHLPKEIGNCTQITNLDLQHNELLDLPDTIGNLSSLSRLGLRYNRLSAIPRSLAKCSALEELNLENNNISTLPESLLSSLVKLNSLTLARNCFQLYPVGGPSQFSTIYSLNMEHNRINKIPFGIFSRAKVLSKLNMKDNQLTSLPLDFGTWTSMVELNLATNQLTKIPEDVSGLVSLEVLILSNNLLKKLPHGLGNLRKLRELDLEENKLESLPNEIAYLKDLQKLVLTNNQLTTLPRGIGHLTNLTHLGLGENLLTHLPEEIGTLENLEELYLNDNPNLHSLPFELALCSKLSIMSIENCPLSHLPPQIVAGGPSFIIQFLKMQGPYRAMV

Consider “KRAS (1–169) (from UniProt P01116 1-169) (domain or fragment)”, for which the apparent KD of ternary complex formation with m3 was found to be 700 nM.
